The results in this text go back to article PMC9036094, “Antigen-derived peptides engage the ER stress sensor IRE1α to curb dendritic cell cross-presentation” (The Journal of Cell Biology, 2022).

Experiment [1] deals with IRE1α in mouse embryonic fibroblasts (MEFs). Put plainly: IRE1α activation in MEFs (immunoblot). The experiment is classed as cell-based. The settings on record: ovalbumin, 4 h. On the procedure: (§1) Figure S1. Antigen pulsing of BMDCs activates IRE1α. (A) BMDCs were treated with MG132 (5 μM) or ovalbumin (500 μg/ml) for indicated time points and analyzed by IB. (B) BMDCs were pulsed with ovalbumin (500 μg/ml) and G9668 (3 μM) for indicated time periods and analyzed by IB. (C) Molecular structure, potency, and kinase selectivity of G9668. (D) Schematic representation of G9668 interaction with 220 kinases at 1 μM. Size and color of circles represent interaction strength. Analysis was conducted by KinomeScan. (E) BMDCs were pulsed for 4 h with APC-tagged ovalbumin or soluble CD4-Fc protein (500 μg/ml) with amiloride (10 μM); uptake of protein was assayed by flow cytometry (n = 3). (F) WT or MyD88 KO Flt3L-derived BMDCs were pulsed with ovalbumin (500 μg/ml) or soluble CD4-Fc protein (500 μg/ml), or treated with LPS (10 μg/ml) for 4 h and analyzed by IB. (G) MEFs and BMDCs were pulsed with ovalbumin or treated with Tg (100 nM) for 4 h and analyzed by IB. Images in A, B, F, and G represent at least two similar experiments, and molecular weights represent kD; E bar graphs represent mean ± SD from three independent biological repeats. Analysis for E was performed using unpaired, two-tailed t test; *, P ≤ 0.05; **, P ≤ 0.01. Source data are available for this figure: SourceData FS1. […]

The subject of experiment [2] is PERK (ATF4, CHOP) in BMDCs. Put plainly: PERK activation in BMDCs (immunoblot of ATF4 and CHOP). The settings on record: MG132 5 μM or ovalbumin 500 μg/ml, in words. It is filed as cell-based, mouse. The method, then: as §1
(Immunoblotting shows a protein as a band on a membrane.)

B1: ovalbumin: classical protein antigen ovalbumin (Sigma-Aldrich) (protein)
chain: MGSIGAASMEFCFDVFKELKVHHANENIFYCPIAIMSALAMVYLGAKDSTRTQINKVVRFDKLPGFGDSIEAQCGTSVNVHSSLRDILNQITKPNDVYSFSLASRLYAEERYPILPEYLQCVKELYRGGLEPINFQTAADQARELINSWVESQTNGIIRNVLQPSSVDSQTAMVLVNAIVFKGLWEKAFKDEDTQAMPFRVTEQESKPVQMMYQIGLFRVASMASEKMKILELPFASGTMSMLVLLPDEVSGLEQLESIINFEKLTEWTSSNVMEERKIKVYLPRMKMEEKYNLTSVLMAMGITDVFSSSANLSGISSAESLKISQAVHAAHAEINEAGREVVGSAEAGVDAASVSEEFRADHPFLFCIKHIATNAVLFFGRCVSP
Consider B1, for which, in experiment [1], the “IRE1α activation, MEFs” value is recorded as “did not display detectable IRE1α activation”. In addition, the PERK activation entry in experiment [2] is listed as “did not show a measurable response”.
